Experimental data from article PMC12298160, “Integrated Transcriptomic and Proteomic Analyses Reveal CsrA-Mediated Regulation of Virulence and Metabolism in Vibrio alginolyticus”.

Molecular target: CsrA (6xHis-CsrA) (UniProt A0A2I3CA03 1-65)
Assay: EMSA; high affinity
Details: protein: recombinant; tags: 6xHis (named 6xHis-CsrA); chain copies: 2; label: biotin

B1: rraA -64 to +36 RNA (ssRNA)
RNA: AAGGUAUAGAAAAGGAUACUGCUCACUGAAGCAACGCUUGGGUGAGAAAAUUCACGGAGGAAAUAUGAGAGACAUUACACCCGAUAUUUGUGACCAAUUU
binding result: binds
